From US20160152729A1 come the findings set out here.

This assay concerns the target human TFPIα (human) (UniProt P10646). Description: SPR Biacore T200; antibody captured on anti-human IgG Fc; TFPI as analyte; 1:1 model. On the technique in general: SPR reads the build-up and loss of mass on a sensor chip optically.

The substance Bay 2A8-K95L (antibody) yielded a dissociation constant (Kd) of 485 pM, an off-rate (koff) of 0.000399 s⁻¹ and a kon of 822000 M⁻¹ s⁻¹.

In general, Kd refers to the constant that tells how readily two partners part at equilibrium. A high value points to weaker binding. In general, koff refers to the first-order rate constant of dissociation. Read a low koff as a long-lived complex. What is called kon is the rate constant with which the complex forms. Lower therefore signals slower complex formation.
